# Where no end group is shown, it is not given here. [ ]: non-standard residue; d: D form.
# T1: GIP receptor (human, UniProt P48546 22-466)
# T1 sequence (looked up): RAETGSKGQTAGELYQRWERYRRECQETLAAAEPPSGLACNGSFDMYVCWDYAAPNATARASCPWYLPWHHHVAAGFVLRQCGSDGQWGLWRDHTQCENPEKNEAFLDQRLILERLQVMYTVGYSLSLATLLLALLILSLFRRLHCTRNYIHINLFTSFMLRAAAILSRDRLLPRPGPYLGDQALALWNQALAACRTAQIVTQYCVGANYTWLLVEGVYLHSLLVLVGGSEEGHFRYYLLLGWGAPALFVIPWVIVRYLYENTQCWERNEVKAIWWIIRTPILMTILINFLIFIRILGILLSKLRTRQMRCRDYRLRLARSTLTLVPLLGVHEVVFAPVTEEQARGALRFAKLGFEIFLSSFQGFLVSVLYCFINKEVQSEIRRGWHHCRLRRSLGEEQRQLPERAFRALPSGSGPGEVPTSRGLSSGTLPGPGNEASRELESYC
# Target: T1, GIP receptor
# Test: cell-based or functional assay
row,"cAMP production in SaOS-2 cells, lowest effective concentration",Binder
1,0.1 nM,Y[dA]EGTFISDYSIAMHPQQPWIL [(DAla2)GIP/xenin-8-Gln]
2,10 nM,Y[dA]EGTFISDYSIAMHPQQPWILGAADDDDDD [(DAla2)GIP/xenin-8-Gln(L-Asp)]
3,1000 nM,Y[dA]EGTFISDYSIAMHPQQPWILGAAEEEEEE [(DAla2)GIP/xenin-8-Gln(L-Glu)]
